Measured values reported in patent US20240383982A1 (Genmab, published 2024).

Columns and labels:
[1] = target: T1, human B7H4, full length, on cells (human, UniProt Q7Z7D3 25-282); experiment: cell-based or functional assay
T1 sequence: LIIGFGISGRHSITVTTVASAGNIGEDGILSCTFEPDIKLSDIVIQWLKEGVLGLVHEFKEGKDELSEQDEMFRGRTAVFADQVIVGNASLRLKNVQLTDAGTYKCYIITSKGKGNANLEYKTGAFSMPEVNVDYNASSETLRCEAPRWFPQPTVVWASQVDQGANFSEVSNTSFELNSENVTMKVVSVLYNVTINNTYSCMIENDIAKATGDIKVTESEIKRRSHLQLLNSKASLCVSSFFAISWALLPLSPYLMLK

[2] = target: T2, pig (Sus scrofa) B7H4, full length, on HEK-293F cells (pig, UniProt Q7Z7D3 26-282 (human entry)); experiment: flow cytometry, HEK-293F cells transiently transfected with pig B7H4, PE anti-human IgG F(ab')2 [panel Pig B7H4]
T2 construct: Uniprot F1SAY4; also called pig B7H4
T2 chain: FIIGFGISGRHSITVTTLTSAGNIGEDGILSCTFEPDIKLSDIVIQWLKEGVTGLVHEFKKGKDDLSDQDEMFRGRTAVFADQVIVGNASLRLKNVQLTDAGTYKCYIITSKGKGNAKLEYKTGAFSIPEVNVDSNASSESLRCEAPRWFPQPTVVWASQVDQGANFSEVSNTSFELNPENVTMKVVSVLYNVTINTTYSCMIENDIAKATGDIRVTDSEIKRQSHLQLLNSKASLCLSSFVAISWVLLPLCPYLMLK
Description: (§1) Cells (3×10⁴ cells/well) were incubated in polystyrene 96-well round-bottom plates (Greiner bio-one, cat. no. 650180) with serial dilutions of antibodies (ranging from 0.000458 to 30 μg/mL in 4-fold dilution steps) in 100 μL PBS/0.1% BSA/0.02% azide (staining buffer) at 4° C. for 30 min. Experiments were performed in technical duplicate. After washing twice in staining buffer, cells were incubated in 50 μL secondary antibody at 4° C. for 30 min. As a secondary antibody, R-Phycoerythrin (PE)-conjugated goat-anti-human IgG F(ab′)₂ (1:500 in FACS buffer; Jackson ImmunoResearch Laboratories, Inc., West Grove, PA, cat. no. 109-116-098), was used. Cells were washed twice in staining buffer, re-suspended in 30 μL FACS buffer containing Topro-3 (1:10,000 dilution) and analyzed on an iQue Screener (Intellicyt Corporation, USA). Binding curves were analyzed using non-linear regression (sigmoidal dose-response with variable slope) using GraphPad Prism V7.02 software (GraphPad Software, San Diego, CA, USA).

[3] = target: T1, human B7H4, full length, on cells; experiment: flow cytometry, HEK-293F cells transfected with human B7H4 [panel Human B7H4]
Description: as §1

[4] = target: T3, mouse (Mus musculus) B7H4, full length, on HEK-293F cells (mouse, UniProt Q7TSP5 25-257); experiment: flow cytometry, HEK-293F cells transfected with mouse B7H4 [panel Mouse B7H4]
T3 construct: Uniprot Q7TSP5; also called mouse B7H4
T3 sequence: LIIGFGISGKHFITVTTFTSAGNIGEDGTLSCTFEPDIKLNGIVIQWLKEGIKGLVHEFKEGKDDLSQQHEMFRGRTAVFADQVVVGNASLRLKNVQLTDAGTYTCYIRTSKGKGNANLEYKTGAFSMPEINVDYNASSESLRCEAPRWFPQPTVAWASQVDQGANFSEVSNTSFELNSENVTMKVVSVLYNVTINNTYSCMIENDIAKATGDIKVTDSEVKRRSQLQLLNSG
Description: as §1

[5] = target: T4, human recombinant His tagged B7H4 protein (Sino Biological cat. no. 10738-H08H) (human, UniProt Q7Z7D3 29-258); experiment: BLI (Octet HTX); antibody on anti-human IgG Fc capture sensor, human B7H4 ECD-His in solution; 2nd experiment
T4 construct: Bought protein; theoretical mass 26.8 kDa; also called human B7H4; human B7H4 extracellular domain
T4 sequence: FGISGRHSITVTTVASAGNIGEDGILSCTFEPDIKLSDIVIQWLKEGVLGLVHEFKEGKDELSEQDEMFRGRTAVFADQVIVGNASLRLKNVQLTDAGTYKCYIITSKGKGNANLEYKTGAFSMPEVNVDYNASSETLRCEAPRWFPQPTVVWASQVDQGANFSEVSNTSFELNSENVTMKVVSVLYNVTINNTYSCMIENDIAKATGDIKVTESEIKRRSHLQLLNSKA
Description: Target binding affinity of B7H4 antibodies was determined by label-free biolayer interferometry (BLI) on an Octet HTX instrument (FortéBio). Experiments were carried out while shaking at 1,000 RPM at 30° C. […] Anti-Human IgG Fc Capture (AHC) biosensors (FortéBio, cat. no. 18-5060) were pre-conditioned by exposure to 10 mM glycine (Sigma-Aldrich, cat. no. 15527) buffer pH 1.7 for 5 s, followed by neutralization in Sample Diluent (FortéBio, cat. no. 18-1048) for 5 s; both steps were repeated 2 times. Next, AHC sensors were loaded with antibody (1 μg/mL in Sample diluent) for 600 s. […] The theoretical molecular mass of human B7H4 and mouse B7H4 (as ECD-His tagged molecules) based on their amino acid sequences (26.8 kDa and 26.6 kDa respectively) were used for calculations. For each antibody a reference sensor was used, which was incubated with Sample Diluent instead of antigen. AHC sensors were regenerated by exposure to 10 mM glycine buffer pH 1.7 for 5 s, followed by neutralization in Sample Diluent for 5 s; both steps were repeated twice. Subsequently sensors were loaded again with antibody for the next cycle of kinetics measurements.
Data were acquired using Data Acquisition Software v9.0.0.49d (FortéBio) and analyzed with Data Analysis Software v9.0.0.12 (FortéBio). Data traces were corrected per antibody by subtraction of the reference sensor. The Y-axis was aligned to the last 10 s of the baseline, Interstep Correction alignment to dissociation and Savitzky-Golay filtering were applied. Data traces with a response<0.05 nm were excluded from analysis. The data was fitted with the 1:1 Global Full fit model using a window of interest for the association and dissociation times set at 300 s and 200 s respectively.

B1: bsIgG1-huCD3-H101G-FEALxB7H4-C1-N52S-FEAR (bispecific antibody)
heavy 1: not shown
light 1: not shown
heavy 2: QVQLQQWGAGLLKPSETLSLTCAVYGGSFSGYYWSWIRQPPGKGLEWIGEISHSGSTNYNPSLKSRVTISIDTSKNQFSLKLTSVTAADTAVFYCARGLFNWNFDSWGQGTLVTVSSASTKGPSVFPLAPSSKSTSGGTAALGCLVKDYFPEPVTVSWNSGALTSGVHTFPAVLQSSGLYSLSSVVTVPSSSLGTQTYICNVNHKPSNTKVDKRVEPKSCDKTHTCPPCPAPEFEGGPSVFLFPPKPKDTLMISRTPEVTCVVVAVSHEDPEVKFNWYVDGVEVHNAKTKPREEQYNSTYRVVSVLTVLHQDWLNGKEYKCKVSNKALPAPIEKTISKAKGQPREPQVYTLPPSREEMTKNQVSLTCLVKGFYPSDIAVEWESNGQPENNYKTTPPVLDSDGSFFLYSRLTVDKSRWQQGNVFSCSVMHEALHNHYTQKSLSLSPGK
light 2: DIQMTQSPSSLSASVGDRVTITCRASQGIRNDLGWYQQKPGKAPKRLIYGASSLQSGVPSRFSGSGSGTEFTLTISSLQPEDFATYYCLQHNSYPRTFGQGTTVEIKRTVAAPSVFIFPPSDEQLKSGTASVVCLLNNFYPREAKVQWKVDNALQSGNSQESVTEQDSKDSTYSLSSTLTLSKADYEKHKVYACEVTHQGLSSPVTKSFNRGEC
notes: also called bslgG1-huCD3-H101G-FEALxB7H4-C1-N52S-FEAR; BslgG1-huCD3-H101G-FEALxB7H4-C1-N52S-FEAR
Q: Which results are given for B1?
A: IC50 of T cell-mediated cytotoxicity, HCC1954 cells, highest of 4 donors [1]: 0.22 µg/mL; IC50 of T cell-mediated cytotoxicity, HCC1954 cells, lowest of 4 donors [1]: 0.06 µg/mL; IC50 of T cell-mediated cytotoxicity, MCF7 cells, highest of 4 donors [1]: 1.29 µg/mL; IC50 of T cell-mediated cytotoxicity, MCF7 cells, lowest of 4 donors [1]: 0.55 µg/mL; IC50 of T cell-mediated cytotoxicity, MDA-MB-468 cells, highest of 4 donors [1]: 0.16 µg/mL; IC50 of T cell-mediated cytotoxicity, MDA-MB-468 cells, lowest of 4 donors [1]: 0.08 µg/mL; IC50 of T cell-mediated cytotoxicity, NCI-H16650 cells, highest of 4 donors [1]: 5.07 µg/mL; IC50 of T cell-mediated cytotoxicity, NCI-H16650 cells, lowest of 4 donors [1]: 1.67 µg/mL; IC50 of T cell-mediated cytotoxicity, OVCAR3 cells, highest of 4 donors [1]: 1.63 µg/mL; IC50 of T cell-mediated cytotoxicity, OVCAR3 cells, lowest of 4 donors [1]: 0.09 µg/mL; IC50 of T cell-mediated cytotoxicity, SK-BR3 cells, highest of 4 donors [1]: 0.22 µg/mL; IC50 of T cell-mediated cytotoxicity, SK-BR3 cells, lowest of 4 donors [1]: 0.09 µg/mL

B2: IgG1-B7H4-C1-N52S-FEAR (antibody, V domains shown)
VH: QVQLQQWGAGLLKPSETLSLTCAVYGGSFSGYYWSWIRQPPGKGLEWIGEISHSGSTNYNPSLKSRVTISIDTSKNQFSLKLTSVTAADTAVFYCARGLFNWNFDSWGQGTLVTVSS
VL: DIQMTQSPSSLSASVGDRVTITCRASQGIRNDLGWYQQKPGKAPKRLIYGASSLQSGVPSRFSGSGSGTEFTLTISSLQPEDFATYYCLQHNSYPRTFGQGTTVEIKR
notes: Full length human IgG1 with L234F, L235E, D265A, K409R (FEAR) heavy chain constant region and kappa light chain; bivalent, monospecific; also called IgG1-B7H4-C1-052S-FEAR
Q: Does B2 bind [2]?
A: binds

Q: And the “EC50 (read off the curve)” value [3]?
A: ~0.05 µg/mL

Q: What about the “EC50 (read off the curve)” value [4] of the same binder?
A: ~0.3 µg/mL

B3: IgG1-B7H4-C5-FEAR (antibody, V domains shown)
VH: QLQLQESGPGLVKPSETLSLTCTVSGGSIKSGSYYWGWIRQPPGKGLEWIGNIYYSGSTYYNPSLRSRVTISVDTSKNQFSLKLSSVTAADTAVYYCAREGSYPNQFDPWGQGTLVTVSS
VL: EIVMTQSPATLSVSPGERATLSCRASQSVSSNLAWYQQKPGQAPRLLIYGASTRATGIPARFSGSGSGTEFTLTISSLQSEDFAVYYCQQYHSFPFTFGGGTKVEIKR
notes: Full length IgG1 FEAR, kappa; variable domains from US20190085080A1
Q: What does the source list for B3?
A: Kd [5]: 9.9 nM; koff [5]: 0.0025 s⁻¹; kon [5]: 250000 M⁻¹ s⁻¹
